Results published in patent publication US20120178908A1 (Novo Nordisk, published 2012).
Where a chain is given by its changes, count along the chain named. Numbers in names are those of the source. Blank lines part the entries; values can stand above or below the binder they belong to.

How the values were obtained:
[1] = molecular target: T1, GPIIbIIIa receptor on human platelets (human, UniProt P08514 32-1039; P05106 27-788); assay: cell-based or functional assay
[2] = molecular target: T1, GPIIbIIIa receptor on human platelets; assay: cell-based or functional assay; remark: listed apart in the source
[3] = molecular target: T2, TLT-1 receptor on the surface of activated human platelets (human, UniProt Q86YW5 16-311); assay: flow cytometry on activated human platelets, detection: anti HPC4 tag ab.
T2 sequence: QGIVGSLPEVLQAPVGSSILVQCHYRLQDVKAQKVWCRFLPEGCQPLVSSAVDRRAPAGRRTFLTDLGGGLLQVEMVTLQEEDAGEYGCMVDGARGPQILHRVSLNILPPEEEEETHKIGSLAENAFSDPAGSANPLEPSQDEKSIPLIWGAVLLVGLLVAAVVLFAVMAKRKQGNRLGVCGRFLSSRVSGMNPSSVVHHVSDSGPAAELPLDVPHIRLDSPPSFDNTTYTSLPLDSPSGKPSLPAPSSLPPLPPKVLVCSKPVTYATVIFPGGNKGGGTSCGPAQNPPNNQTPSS

[4] = molecular target: mAb-hTF.1-219 fusion proteins (those tested in FIG. 7)
[5] = molecular target: T3, hTF.1-219 (soluble tissue factor)
T3 chain: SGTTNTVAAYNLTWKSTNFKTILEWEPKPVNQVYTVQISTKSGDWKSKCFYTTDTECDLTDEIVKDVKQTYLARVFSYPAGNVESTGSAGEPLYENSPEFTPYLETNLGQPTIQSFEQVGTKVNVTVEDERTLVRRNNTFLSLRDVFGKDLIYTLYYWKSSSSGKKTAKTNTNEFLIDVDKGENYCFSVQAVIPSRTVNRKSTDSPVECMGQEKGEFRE

[6] = molecular target: Fab-hTF.1-219 fusion proteins (those tested in FIG. 7)
[7] = molecular target: T4, TLT-1 receptor on the surface of activated human platelets (human) (UniProt Q86YW5)
T4 sequence: T2 sequence

[8] = molecular target: T5, TLT-1 18-188 relipidated in 20:80 PS:PC vesicles (human) (UniProt Q86YW5)
T5 sequence: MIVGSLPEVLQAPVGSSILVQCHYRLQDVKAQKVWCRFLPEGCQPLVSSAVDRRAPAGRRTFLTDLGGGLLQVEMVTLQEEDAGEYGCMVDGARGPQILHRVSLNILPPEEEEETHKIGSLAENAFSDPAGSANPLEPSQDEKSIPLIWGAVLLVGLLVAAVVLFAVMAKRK

[9] = molecular target: T6, TLT-1 18-188 relipidated in 20:80 PS:PC vesicles (human, UniProt Q86YW5 18-188); assay: cell-based or functional assay
T6 sequence: T5 sequence

[10] = molecular target: T2, TLT-1 receptor on the surface of …; assay: cell-based or functional assay

T1 sequence (P08514 32-1039, chain 1 of 2): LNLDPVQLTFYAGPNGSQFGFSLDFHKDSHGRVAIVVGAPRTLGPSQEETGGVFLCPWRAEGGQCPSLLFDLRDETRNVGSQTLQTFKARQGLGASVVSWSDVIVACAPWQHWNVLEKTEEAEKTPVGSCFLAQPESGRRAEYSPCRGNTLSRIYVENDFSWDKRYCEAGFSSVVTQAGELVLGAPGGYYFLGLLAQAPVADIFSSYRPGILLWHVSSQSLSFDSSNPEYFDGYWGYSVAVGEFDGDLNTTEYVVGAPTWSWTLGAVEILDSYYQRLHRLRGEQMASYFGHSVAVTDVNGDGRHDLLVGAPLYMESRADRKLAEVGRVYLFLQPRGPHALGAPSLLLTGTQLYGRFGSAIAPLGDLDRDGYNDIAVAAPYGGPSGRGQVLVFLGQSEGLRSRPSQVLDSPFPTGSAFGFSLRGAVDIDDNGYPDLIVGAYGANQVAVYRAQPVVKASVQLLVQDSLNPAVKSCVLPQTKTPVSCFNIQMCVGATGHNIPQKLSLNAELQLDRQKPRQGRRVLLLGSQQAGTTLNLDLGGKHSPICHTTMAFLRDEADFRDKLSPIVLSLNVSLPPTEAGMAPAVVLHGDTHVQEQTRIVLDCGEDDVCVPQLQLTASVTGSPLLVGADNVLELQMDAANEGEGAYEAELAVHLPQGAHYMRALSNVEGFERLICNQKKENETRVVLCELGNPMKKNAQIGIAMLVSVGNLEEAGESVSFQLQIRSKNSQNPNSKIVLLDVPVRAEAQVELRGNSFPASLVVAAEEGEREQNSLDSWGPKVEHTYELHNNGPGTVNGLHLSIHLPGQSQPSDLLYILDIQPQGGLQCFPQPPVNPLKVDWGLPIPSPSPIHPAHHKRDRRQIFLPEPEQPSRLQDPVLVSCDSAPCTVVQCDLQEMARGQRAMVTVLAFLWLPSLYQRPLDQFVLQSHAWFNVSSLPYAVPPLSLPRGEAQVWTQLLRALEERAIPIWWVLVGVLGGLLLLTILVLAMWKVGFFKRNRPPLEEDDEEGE
T1 sequence (P05106 27-788, chain 2 of 2): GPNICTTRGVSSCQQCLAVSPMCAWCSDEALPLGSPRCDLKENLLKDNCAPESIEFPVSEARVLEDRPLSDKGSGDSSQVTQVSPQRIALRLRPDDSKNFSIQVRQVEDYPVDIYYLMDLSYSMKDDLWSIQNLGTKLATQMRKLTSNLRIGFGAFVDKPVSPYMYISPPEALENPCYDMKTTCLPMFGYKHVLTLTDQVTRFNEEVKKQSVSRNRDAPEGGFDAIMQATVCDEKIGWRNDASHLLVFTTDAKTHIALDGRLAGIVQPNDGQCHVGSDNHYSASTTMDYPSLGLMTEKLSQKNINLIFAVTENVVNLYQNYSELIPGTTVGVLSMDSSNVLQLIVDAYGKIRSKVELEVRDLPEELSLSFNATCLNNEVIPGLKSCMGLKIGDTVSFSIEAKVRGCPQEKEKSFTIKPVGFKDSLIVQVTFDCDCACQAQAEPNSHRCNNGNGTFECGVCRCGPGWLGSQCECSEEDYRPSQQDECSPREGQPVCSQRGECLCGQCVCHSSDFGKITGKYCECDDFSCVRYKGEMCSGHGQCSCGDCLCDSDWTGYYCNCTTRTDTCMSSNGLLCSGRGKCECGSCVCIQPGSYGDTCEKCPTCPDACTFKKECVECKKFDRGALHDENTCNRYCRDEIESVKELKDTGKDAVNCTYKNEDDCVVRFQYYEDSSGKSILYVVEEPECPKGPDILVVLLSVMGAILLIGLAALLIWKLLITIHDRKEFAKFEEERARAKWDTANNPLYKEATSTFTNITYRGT

B1: Fab AP-3-LC-L4a-hTF.1-219; VH-CH1-HPC4 (other)
light: DIVMTQAAPSVPVTPGESVSISCRSSRSLLHSNGNTYLCWFLQRPGQSPQLLIYRMSNLASGVPDRFSGSGSGTAFTLRISRVEAEDVGVYYCMQHLEYPFTFGSGTKLEIKRTVAAPSVFIFPPSDEQLKSGTASVVCLLNNFYPREAKVQWKVDNALQSGNSQESVTEQDSKDSTYSLSSTLTLSKADYEKHKVYACEVTHQGLSSPVTKSFNRGECGSGGGGSGGGGSGGGGSSGTTNTVAAYNLTWKSTNFKTILEWEPKPVNQVYTVQISTKSGDWKSKCFYTTDTECDLTDEIVKDVKQTYLARVFSYPAGNVESTGSAGEPLYENSPEFTPYLETNLGQPTIQSFEQVGTKVNVTVEDERTLVRRNNTFLSLRDVFGKDLIYTLYYWKSSSSGKKTAKTNTNEFLIDVDKGENYCFSVQAVIPSRTVNRKSTDSPVECMGQEKGEFRE
heavy: QVQLQQSGAELVRPGTSVKISCKASGYTFTNYWLGWVKQRPGHGLEWIGDIYPGGGYNKYNENFKGKATLTADTSSSTAYMQLSSLTSEDSAVYFCAREYGNYDYAMDSWGQGTSVTVSSASTKGPSVFPLAPCSRSTSESTAALGCLVKDYFPEPVTVSWNSGALTSGVHTFPAVLQSSGLYSLSSVVTVPSSSLGTKTYTCNVDHKPSNTKVDKRVESKEDQVDPRLIDGK
FVII-mediated FXa generation % Activity activated plts (n 1) [1]: 218%
FVIIa-mediated FXa generation % Activity activated plts (n 1) [1]: 164%
FX activation: response with resting platelets relative to activated platelets [2]: ~20 % of the response with activated platelets

B4: Factor VIIa (FVIIa) (protein)
chain: ANAFLEELRPGSLERECKEEQCSFEEAREIFKDAERTKLFWISYSDGDQCASSPCQNGGSCKDQLQSYICFCLPAFEGRNCETHKDDQLICVNENGGCEQYCSDHTGTKRSCRCHEGYSLLADGVSCTPTVEYPCGKIPILEKRNASKPQGRIVGGKVCPKGECPWQVLLLVNGAQLCGGTLINTIWVVSAAHCFDKIKNWRNLIAVLGEHDLSEHDGDEQSRRVAQVIIPSTYVPGTTNHDIALLRLHQPVVLTDHVVPLCLPERTFSERTLAFVRFSLVSGWGQLLDRGATALELMVLNVPRLMTQDCLQQSRKVGDSPNITEYMFCAGYSDGSKDSCKGDSGGPHATHYRGTWYLTGIVSWGQGCATVGHFGVYTRVSQYIEWLQKLMRSEPRPGVLLRAPFP
FVIIa amidolytic activity (chromogenic substrate S2288, A405) [4]: similarly stimulate FVIIa activity in a concentration dependent manner identical to that of hTF.1-219
FVIIa amidolytic activity (chromogenic substrate S2288, A405) [5]: Binding of hTF.1-219 to FVIIa increases the FVIIa catalytic activity
FVIIa amidolytic activity (chromogenic substrate S2288, A405) [6]: stimulate FVIIa amidolytic activity in a concentration dependent manner indistinguishable from that induced by hTF.1-219

B5: Fab 0012-LC-L8-TF;VH-CH1-HPC4 (protein)
light chain-linker-TF: DVVMTQTPLSLPVSLGDQASISCRSSQSLVHRNGNTYFHWCLQKPGQSPKLLIYKVSNRFSGVPDRFSGSGSGTDFTLKISRVEAEDLGVYFCSQSTHVPYTFGGGTKLEIKRTVAAPSVFIFPPSDEQLKSGTASVVCLLNNFYPREAKVQWKVDNALQSGNSQESVTEQDSKDSTYSLSSTLTLSKADYEKHKVYACEVTHQGLSSPVTKSFNRGECGGGGSGGGGSGGGGSGGGGSGSGGGGSGGGGSGGGGSSGTTNTVAAYNLTWKSTNFKTILEWEPKPVNQVYTVQISTKSGDWKSKCFYTTDTECDLTDEIVKDVKQTYLARVFSYPAGNVESTGSAGEPLYENSPEFTPYLETNLGQPTIQSFEQVGTKVNVTVEDERTLVRRNNTFLSLRDVFGKDLIYTLYYWKSSSSGKKTAKTNTNEFLIDVDKGENYCFSVQAVIPSRTVNRKSTDSPVECMGQEKGEFRE
VH-CH1-HPC4: EVKLLESGGGLVQPGGSLKLSCAASGFDFSRYWMTWVRQAPGKGLEWIGEINPDSSTINYTPSLKDKFIISRDNAKNTLYLQMSEVRSEDTALYYCASGVFTSWGQGTLVTVSAASTKGPSVFPLAPCSRSTSESTAALGCLVKDYFPEPVTVSWNSGALTSGVHTFPAVLQSSGLYSLSSVVTVPSSSLGTKTYTCNVDHKPSNTKVDKRVESKEDQVDPRLIDGK
FVII-mediated FXa generation % Activity activated plts (n 1) [7]: 86%
FVIIa-mediated FXa generation % Activity activated plts (n 1) [7]: 81%
FVII-mediated FXa generation % Activity lipidated TLT-1 [8]: 94%
FVIIa-mediated FXa generation % Activity lipidated TLT-1 [8]: 98%

B7: Fab 0012-LC-L9-TF;VH-CH1-HPC4 (protein)
light chain-linker-TF: DVVMTQTPLSLPVSLGDQASISCRSSQSLVHRNGNTYFHWCLQKPGQSPKLLIYKVSNRFSGVPDRFSGSGSGTDFTLKISRVEAEDLGVYFCSQSTHVPYTFGGGTKLEIKRTVAAPSVFIFPPSDEQLKSGTASVVCLLNNFYPREAKVQWKVDNALQSGNSQESVTEQDSKDSTYSLSSTLTLSKADYEKHKVYACEVTHQGLSSPVTKSFNRGECGGGGSGGGGSGGGGSGGGGSGGGGSGSGGGGSGGGGSGGGGSSGTTNTVAAYNLTWKSTNFKTILEWEPKPVNQVYTVQISTKSGDWKSKCFYTTDTECDLTDEIVKDVKQTYLARVFSYPAGNVESTGSAGEPLYENSPEFTPYLETNLGQPTIQSFEQVGTKVNVTVEDERTLVRRNNTFLSLRDVFGKDLIYTLYYWKSSSSGKKTAKTNTNEFLIDVDKGENYCFSVQAVIPSRTVNRKSTDSPVECMGQEKGEFRE
VH-CH1-HPC4: B5 VH-CH1-HPC4
FVII-mediated FXa generation % Activity activated plts (n 1) [7]: 80%
FVIIa-mediated FXa generation % Activity activated plts (n 1) [7]: 76%
FVII-mediated FXa generation % Activity lipidated TLT-1 [8]: 88%
FVIIa-mediated FXa generation % Activity lipidated TLT-1 [8]: 95%

Other lines, results leading:

FVII-mediated FXa generation % Activity activated plts (n 1) [1]: 215%
FVIIa-mediated FXa generation % Activity activated plts (n 1) [1]: 143%
FX activation: response with resting platelets relative to activated platelets [2]: ~20 % of the response with activated platelets
B2: Fab AP-3-LC.C34S-L4a-hTF.1-219; VH-CH1-HPC4 (other)
light: B1 light with C39S
heavy: B1 heavy

binding result [3]: binds
B3: Fab 0012-LC-HPC4; VH-CH1 (Fab)
heavy: EVKLLESGGGLVQPGGSLKLSCAASGFDFSRYWMTWVRQAPGKGLEWIGEINPDSSTINYTPSLKDKFIISRDNAKNTLYLQMSEVRSEDTALYYCASGVFTSWGQGTLVTVSAASTKGPSVFPLAPCSRSTSESTAALGCLVKDYFPEPVTVSWNSGALTSGVHTFPAVLQSSGLYSLSSVVTVPSSSLGTKTYTCNVDHKPSNTKVDKRVESK
light: DVVMTQTPLSLPVSLGDQASISCRSSQSLVHRNGNTYFHWCLQKPGQSPKLLIYKVSNRFSGVPDRFSGSGSGTDFTLKISRVEAEDLGVYFCSQSTHVPYTFGGGTKLEIKRTVAAPSVFIFPPSDEQLKSGTASVVCLLNNFYPREAKVQWKVDNALQSGNSQESVTEQDSKDSTYSLSSTLTLSKADYEKHKVYACEVTHQGLSSPVTKSFNRGECEDQVDPRLIDGK
notes: Anti-TLT-1 Fab without tissue factor; also called 0010; 0010 Fab

FVII-mediated FXa generation % Activity lipidated TLT-1 [9]: 97%
FX activation: response with resting platelets relative to activated platelets [10]: 8 % of the response with activated platelets
B6: Fab 0012-LC-L4a-hTF.1-219; VH-CH1-HPC4 (other)
light: DVVMTQTPLSLPVSLGDQASISCRSSQSLVHRNGNTYFHWCLQKPGQSPKLLIYKVSNRFSGVPDRFSGSGSGTDFTLKISRVEAEDLGVYFCSQSTHVPYTFGGGTKLEIKRTVAAPSVFIFPPSDEQLKSGTASVVCLLNNFYPREAKVQWKVDNALQSGNSQESVTEQDSKDSTYSLSSTLTLSKADYEKHKVYACEVTHQGLSSPVTKSFNRGECGSGGGGSGGGGSGGGGSSGTTNTVAAYNLTWKSTNFKTILEWEPKPVNQVYTVQISTKSGDWKSKCFYTTDTECDLTDEIVKDVKQTYLARVFSYPAGNVESTGSAGEPLYENSPEFTPYLETNLGQPTIQSFEQVGTKVNVTVEDERTLVRRNNTFLSLRDVFGKDLIYTLYYWKSSSSGKKTAKTNTNEFLIDVDKGENYCFSVQAVIPSRTVNRKSTDSPVECMGQEKGEFRE
heavy: B5 VH-CH1-HPC4
